Biological target: CD3ε on Jurkat-NFAT responder cells (UniProt P07766 23-207)
Assay: cell-based or functional assay

CD3ε on Jurkat-NFAT responder cells, sequence (P07766 23-207): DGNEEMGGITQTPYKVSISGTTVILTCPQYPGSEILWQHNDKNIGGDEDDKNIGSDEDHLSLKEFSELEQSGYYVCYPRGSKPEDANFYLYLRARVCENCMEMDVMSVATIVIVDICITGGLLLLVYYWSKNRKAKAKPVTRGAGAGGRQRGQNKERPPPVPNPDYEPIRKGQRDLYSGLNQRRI

B1: BEAT®3 (bispecific antibody, human IgG1, kappa, L234A L235A)
chain 1: EVQLVESGGGLVQPGGSLRLSCAASGFTFNTYAMNWVRQAPGKGLEWVARIRSKYNNYATYYADSVKSRFTISRDDSKNTLYLQMNSLRAEDTAVYYCVRHGNFGNSYVSYFAYWGQGTTVTVSSGGGGSGGGGSGGGGSEIVVTQSPATLSVSPGERATLSCRSSTGAVTESNYANWVQEKPGQAFRGLIGGANKRAPGVPARFSGSLSGDEATLTISSLQSEDFAVYYCALFYSNTWVFGQGTKLEIKGGGGTQVQLQESGPGLVKPSETLSLTCTVSGGSVSSGDYYWTWIRQSPGKGLEWIGHIYYSGNTNYNPSLKSRLTISIDTSKTQFSLKLSSVTAADTAIYYCVRDRVTGAFDIWGQGTMVTVSSASTKGPSVFPLAPSSKSTSGGTAALGCLVKDYFPEPVTVSWNSGALTSGVHTFPAVLQSSGLYSLSSVVTVPSSSLGTQTYICNVNHKPSNTKVDKKVEPKSCDKTHTCPPCPAPEAAGGPSVFLFPPKPKDTLMISRTPEVTCVVVDVSHEDPEVQFKWYVDGVEVHNAKTKPREEQYNSTFRVVSVLTVLHQDWLNGKEYKCKVSNKALPAPIEKTISKTKGQPREPAVYTLPPSREEMTKNQVKLVCLVTGFYPSDIAVEWESSGQPENNYYTTPPMLDSDGSFSLVSWLNVDKSRWQQGNIFSCSVMHEALHNRFTQKSLSLSPG
chain 2: not shown
chain 3: DKTHTCPPCPAPEAAGGPSVFLFPPKPKDTLMISRTPEVTCVVVDVSHEDPEVKFNWYVDGVEVHNAKTKPREEQYNSTYRVVSVLTVLHQDWLNGKEYKCKVSNKALPAPIEKTISKAKGQPREPEVATFPPSRDELTKNQVTLVCLVTGFYPSDIAVEWESNGQPENNYKTDPPLLESDGSFALSSRLRVDKSRWQQGNVFSCSVMHEALHNHYTQKSLSLSPG
  EC50 of NFAT-luciferase luminescence (Jurkat-NFAT responder cells co-incubated with SK-BR-3 target cells); sample: BEAT®3 High pH T2h: 0.0065 µg/ml
  EC50 of NFAT-luciferase luminescence (Jurkat-NFAT responder cells co-incubated with SK-BR-3 target cells); sample: BEAT®3 High pH T4h: 0.0074 µg/ml
